Reference: US7517654B2, “Peptide and a derivative thereof promoting cell adhesion and spreading” (Seoul National University Industry Foundation, priority 2004, dated 2009)
Entries after “also recorded” stand apart in the source; their conditions may differ.

Key:
HOK-16B cells = test: Cell spreading activity assay on coated plates; type: cell-based, human; conditions: spreading cells divided by total bound cells, coated plates
Experimental: To identify spreading cells, attached cells were fixed with 10% formalin in PBS for 15 min, rinsed twice with PBS, and stained with 0.005% crystal violet for 1 h. The plates were then gently rinsed with DDW. To ensure a representative count, each plate was divided into quarters, two fields per quarter were photographed using an Olympus BX51 microscope at 100× magnification. Cells that had adopted a flattened, polygonal shape, with filopodia-and lamellipodia-like extensions were considered to be spreading cells. In contrast, cells that resisted being washed and remained tethered to the plate surface were considered to be non-spreading cells.
To examine the adhesion activity of peptide P4 in detail, the inventors examined whether the adherent cells were tethered to the substratum or spread over the substratum. The BSA and rLG3 were used as the negative control and positive control, respectively, the percentage of cells displaying a spreading morphology was quantified by dividing the number of spreading cells by the total number of bound cells.

integrin α3β1 = molecular target: T1, integrin α3β1 (Homo sapiens, UniProt P05556+P26006); test: Adhesion activity inhibition assay with function-blocking anti-integrin mAbs or EDTA; type: cell-based; conditions: 25 μg/ml rLG3 or 10 μg/well peptide P4 coating; for inhibition of cell adhesion activity by anti-integrin β1 antibody: 5 μg/ml mAb (6S6) preincubation 30 min; for inhibition of cell adhesion activity by anti-integrin α3 antibody: 5 μg/ml mAb (P1B5) preincubation 30 min; for effect of EDTA on cell adhesion: 5 mM EDTA preincubation 30 min
T1 construct: it is confirmed that the HOK-16B cells expressed several integrins, including α3β1, α6β1, and α6β4; endogenous in cells; host or cells: HOK-16B (HPV-16-immortalized human oral keratinocytes)
Experimental: To identify the receptor of the HOK-16B cells for rLG3 protein and peptide P4, 5 μg/ml of mAbs to different types of integrins or 5 mM EDTA were preincubated individually with HOK-16B cells in 0.5 ml incubation solution (2×10^5 cells/ml) for 30 min at 37° C. The preincubated cells were then transferred onto plates precoated with either 25 μg/ml of rLG3 protein or 10 μg/well of peptide P4 and incubated for 1 h at 37° C. Attached cells were then quantified by the cell adhesion assay described above in the Experimental Example 2, and cell adhesion activity inhibition rate were measured.
Meanwhile, the ligand-integrin interaction were known to require a divalent cation. To determine the role of cations in the interaction, the present inventors examined the effect of metal-chelating reagent, EDTA, on HOK-16B cell adhesion to the rLG3- and peptide P4-coated plates. HOK-16B cells were preincubated with 5 mM EDTA or 5 μg/ml function-blocking mAbs (Chemicon Temecula, CA) against integrin α3 (P1B5), β1 (6S6), α6 (NK I-GoH3) subunits for 30 min at 37° C. and plated on 25 μg/ml rLG3-precoated plate, and then cultured for 1 hr. After the unbound cells were washed off, the adherent cells were fixed to stain with crystal violet, and the stained cells were analyzed. The average adhesion activity of control cultures (HOK-16B cells preincubated without EDTA or integrin antibodies) were considered 100%.

FAK = FAK phosphorylation assay (immunoblot, p-FAK/t-FAK); type: cell-based, human; conditions: 15 min
Experimental: The FAK phosphorylation assays were performed according to a method of Shang et al. (J. Biol. Chem., 276:33045, 2001). In detail, the HOK-16B cells were trypsinized, washed, and kept in suspension in serum-free KGM with 0.1% BSA for 1 h at 37° C. The 60-mm culture dishes were coated with laminin (5 μg/ml) or rLG3 protein (25 μg/ml) at 4° C. overnight. Peptides (50 μg/60-mm culture dish) were also coated on dishes by drying overnight. For the adherent FAK assay, 1×10^6 cells were plated onto uncoated, laminin-coated, rLG3 protein-coated, or various peptide-coated dishes and allowed to attach for 15, 30, or 60 min at 37° C. in an atmosphere of 5% CO2. At the end of the incubation, cells were washed with ice-cold PBS and lysed in RIPA buffer (50 mM Tris [pH 7.4], 150 mM NaCl, 1% Nonidet P-40, 0.5% Na-deoxycholate, 1 mM EDTA, 0.1% SDS, 2 mM Na3VO4, 1 mM glycerol phosphate, 1 mM PMSF, and protease inhibitor cocktail). Lysates were clarified by centrifugation at 12,000×g for 10 min at 4° C. to isolate cytosolic extracts.
The cytosolic extracts were denatured using SDS sample buffer [50 mM Tris-HCl (pH 6.8), 2% SDS, 10% glycerol, 0.1% bromophenol blue, 100 mM β-mercaptoethanol] and separated on an 8% SDS-polyacrylamide gel. Electrophoretic transfer of SDS-PAGE gel separated with protein to a nitrocellulose membrane was followed by immnoblotting with polyclonal anti-FAK antibodies to determine the total FAK level or immnoblotting with polyclonal anti-FAK [pY^397], [pY^407], [pY^576], [pY^577] or [pY^861] antibodies to determine the extent of tyrosine phosphorylation. The relative fold induction of FAK phosphorylation, defined as an increase in FAK phosphorylation of a sample relative to its corresponding background level (i.e., cells plated on plastic) was determined as follows: First, the densitomerty intensity of the phosphorylated FAK (p-FAK) and the total FAK (t-FAK) signals from the Western blots were measured with a LAS-1000plus (Fuji photo film, Japan). The ratio of p-FAK to t-FAK (p-FAK/t-FAK) for each sample was then calculated to correct for differences in protein loading. This ratio was normalized to the p-FAK/t-FAK ratio of the negative controls to obtain the relative fold induction of FAK phosphorylation.
HOK-16B cells isolated by trypsinization were suspended for 1 hr, and kept in suspension (Sus), or replated on 60-mm culture dishes coated with or without laminin (5 μg/ml). The cells were kept for 15, 30, or 60 min for being attached on plates, then cell lysates were analyzed by immunoblot analysis with anti-FAK p-Y397 antibody (Biosource, Camariollo, Calif.). […] This effect was observed within 15 min and peaked at 15 min after exposure to the laminin-coated plate (FIG. 8A).
Therefore, the extent of FAK phosphorylation at Tyr-397,-407,-576, -577, and -861 was investigated in HOK-16B cells cultured on plates coated with laminin (5 μg/ml), rLG3 (25 μg/ml), or peptides P1-P5 (50 μg/60-mm dish) for 15 min. The lysates were immnoblotted with polyclonal anti-FAK, p-Y397, p-Y407, p-Y576, p-Y577 or p-Y861 antibodies (Biosoucce, Camariollo, Calif.), and the total FAK level was detected using anti-FAK antibodies (Upstate Biotechnology, Lake Placid, N.Y. The ratio of p-FAK to t-FAK (p-FAK/t-FAK) for each sample was then calculated to correct for differences in protein loading. This ratio was normalized to the p-FAK/t-FAK ratio of the negative controls (cells on plates) to obtain the relative fold induction of FAK phosphorylation. As a result, the extent of FAK phosphorylation at Tyr-397 cultured on the laminin-coated or rLG3 protein-coated plates increased 16.2- and 8.2-fold compared with the untreated control (FIG. 8B).

T1 sequence (P26006 33-872 limits assumed): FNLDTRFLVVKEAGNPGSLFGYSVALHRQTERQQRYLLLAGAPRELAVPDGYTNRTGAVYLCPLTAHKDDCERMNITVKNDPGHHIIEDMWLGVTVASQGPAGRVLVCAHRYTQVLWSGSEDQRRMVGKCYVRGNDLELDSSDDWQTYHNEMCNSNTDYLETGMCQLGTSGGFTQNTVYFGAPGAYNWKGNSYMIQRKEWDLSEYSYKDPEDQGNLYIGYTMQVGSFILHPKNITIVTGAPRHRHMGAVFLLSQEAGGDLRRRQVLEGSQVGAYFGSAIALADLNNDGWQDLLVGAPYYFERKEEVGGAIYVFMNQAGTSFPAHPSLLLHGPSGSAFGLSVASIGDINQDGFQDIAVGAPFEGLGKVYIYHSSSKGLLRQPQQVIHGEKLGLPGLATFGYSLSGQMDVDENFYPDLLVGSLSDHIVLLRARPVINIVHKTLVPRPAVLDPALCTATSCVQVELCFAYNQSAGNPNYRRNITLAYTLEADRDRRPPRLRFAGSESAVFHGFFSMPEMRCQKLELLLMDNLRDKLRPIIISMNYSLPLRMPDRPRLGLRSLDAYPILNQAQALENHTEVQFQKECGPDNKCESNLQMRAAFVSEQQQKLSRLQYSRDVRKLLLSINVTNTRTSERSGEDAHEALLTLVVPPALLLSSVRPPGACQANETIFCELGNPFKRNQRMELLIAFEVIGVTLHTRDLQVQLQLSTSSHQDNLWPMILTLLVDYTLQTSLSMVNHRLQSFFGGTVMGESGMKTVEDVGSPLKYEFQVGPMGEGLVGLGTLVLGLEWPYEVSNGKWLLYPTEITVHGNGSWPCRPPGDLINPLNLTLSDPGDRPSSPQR
T1 sequence (P26006 873-1051 limits assumed): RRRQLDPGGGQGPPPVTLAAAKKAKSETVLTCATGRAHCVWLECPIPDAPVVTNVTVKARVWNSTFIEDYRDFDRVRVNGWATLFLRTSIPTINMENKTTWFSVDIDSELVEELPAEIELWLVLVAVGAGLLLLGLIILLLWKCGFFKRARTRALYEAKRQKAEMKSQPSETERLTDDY
T1 sequence (P05556 21-798): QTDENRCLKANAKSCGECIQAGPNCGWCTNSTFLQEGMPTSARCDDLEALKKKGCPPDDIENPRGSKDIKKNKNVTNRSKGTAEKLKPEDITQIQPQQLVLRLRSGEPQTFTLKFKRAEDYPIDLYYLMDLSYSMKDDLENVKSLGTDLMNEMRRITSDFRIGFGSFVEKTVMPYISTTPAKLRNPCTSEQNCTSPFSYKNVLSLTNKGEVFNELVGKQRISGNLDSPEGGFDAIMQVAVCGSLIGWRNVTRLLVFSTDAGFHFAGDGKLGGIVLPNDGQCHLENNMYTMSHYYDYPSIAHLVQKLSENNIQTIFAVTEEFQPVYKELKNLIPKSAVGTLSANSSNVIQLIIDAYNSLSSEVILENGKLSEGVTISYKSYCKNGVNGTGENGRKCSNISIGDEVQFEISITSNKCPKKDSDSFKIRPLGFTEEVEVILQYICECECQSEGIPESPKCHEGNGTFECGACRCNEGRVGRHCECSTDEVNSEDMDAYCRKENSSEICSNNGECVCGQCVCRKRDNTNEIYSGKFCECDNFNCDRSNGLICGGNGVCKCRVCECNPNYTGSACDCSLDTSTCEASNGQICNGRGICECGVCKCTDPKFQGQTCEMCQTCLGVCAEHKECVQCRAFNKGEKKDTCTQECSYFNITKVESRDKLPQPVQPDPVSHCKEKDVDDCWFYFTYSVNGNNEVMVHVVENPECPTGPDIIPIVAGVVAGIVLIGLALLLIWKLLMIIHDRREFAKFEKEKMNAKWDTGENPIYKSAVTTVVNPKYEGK

Molecule	HOK-16B cells displaying a spreading morphology (HOK-16B cells) [%]	inhibition of cell adhesion activity by anti-integrin β1 antibody (integrin α3β1) [%]	inhibition of cell adhesion activity by anti-integrin α3 antibody (integrin α3β1) [%]	effect of EDTA on cell adhesion (integrin α3β1)	FAK phosphorylation level at Tyr-577 (FAK; HOK-16B cells on coated dishes, peptides 50 μg/60-mm dish)	changes of the FAK phosphorylation levels at Tyr-407, -576 and -861 (FAK; HOK-16B cells on coated dishes)	increase of FAK phosphorylation at Tyr-397 compared with the untreated control (FAK; HOK-16B cells, laminin 5 μg/ml or rLG3 25 μg/ml coating, p-FAK/t-FAK normalized) [fold]
PPFLMLLKGSTR [peptide P4]	35	54	49	decrease in cell adhesion	higher than that in the cells spread on the other peptides; also recorded: lower than that on laminin		
rLG3: recombinant His6-tagged LG3 domain, residues 1128-1364 of human laminin α3 chain (protein, listed as Homo sapiens, His6 tag, recombinant His6-tagged LG3 domain, residues 1128-1364 of human laminin α3 chain) VRLNDTVGVTKKCSEDWKLVRSASFSRGGQLSFTDLGLPPTDHLQASFGFQTFQPSGILLDHQTWTRNLQVTLEDGYIELSTSDSGGPIFKSPQTYMDGLLHYVSVISDNSGLRLLIDDQLLRNSKRLKHISSSRQSLRLGGSNFEGCISNVFVQRLSLSPEVLDLTSNSLKRDVSLGGCSLNKPPFLMLLKGSTRFNKTKTFRINQLLQDTPVASPRSVKVWQDACSPLPKTQANH	47	71	71	almost completely inhibited		not observed	8.2
